The results in this text go back to IntAct's records for PubMed 33758649.

The labels stand for the following.
B1: Protein PALS1 (Homo sapiens), Q8N3R9 (parent)
chain: MTTSHMNGHVTEESDSEVKNVDLASPEEHQKHREMAVDCPGDLGTRMMPIRRSAQLERIRQQQEDMRRRREEEGKKQELDLNSSMRLKKLAQIPPKTGIDNPMFDTEEGIVLESPHYAVKILEIEDLFSSLKHIQHTLVDSQSQEDISLLLQLVQNKDFQNAFKIHNAITVHMNKASPPFPLISNAQDLAQEVQTVLKPVHHKEGQELTALLNTPHIQALLLAHDKVAEQEMQLEPITDERVYESIGQYGGETVKIVRIEKARDIPLGATVRNEMDSVIISRIVKGGAAEKSGLLHEGDEVLEINGIEIRGKDVNEVFDLLSDMHGTLTFVLIPSQQIKPPPAKETVIHVKAHFDYDPSDDPYVPCRELGLSFQKGDILHVISQEDPNWWQAYREGDEDNQPLAGLVPGKSFQQQREAMKQTIEEDKEPEKSGKLWCAKKNKKKRKKVLYNANKNDDYDNEEILTYEEMSLYHQPANRKRPIILIGPQNCGQNELRQRLMNKEKDRFASAVPHTTRSRRDQEVAGRDYHFVSRQAFEADIAAGKFIEHGEFEKNLYGTSIDSVRQVINSGKICLLSLRTQSLKTLRNSDLKPYIIFIAPPSQERLRALLAKEGKNPKPEELREIIEKTREMEQNNGHYFDTAIVNSDLDKAYQELLRLINKLDTEPQWVPSTWLR
partner: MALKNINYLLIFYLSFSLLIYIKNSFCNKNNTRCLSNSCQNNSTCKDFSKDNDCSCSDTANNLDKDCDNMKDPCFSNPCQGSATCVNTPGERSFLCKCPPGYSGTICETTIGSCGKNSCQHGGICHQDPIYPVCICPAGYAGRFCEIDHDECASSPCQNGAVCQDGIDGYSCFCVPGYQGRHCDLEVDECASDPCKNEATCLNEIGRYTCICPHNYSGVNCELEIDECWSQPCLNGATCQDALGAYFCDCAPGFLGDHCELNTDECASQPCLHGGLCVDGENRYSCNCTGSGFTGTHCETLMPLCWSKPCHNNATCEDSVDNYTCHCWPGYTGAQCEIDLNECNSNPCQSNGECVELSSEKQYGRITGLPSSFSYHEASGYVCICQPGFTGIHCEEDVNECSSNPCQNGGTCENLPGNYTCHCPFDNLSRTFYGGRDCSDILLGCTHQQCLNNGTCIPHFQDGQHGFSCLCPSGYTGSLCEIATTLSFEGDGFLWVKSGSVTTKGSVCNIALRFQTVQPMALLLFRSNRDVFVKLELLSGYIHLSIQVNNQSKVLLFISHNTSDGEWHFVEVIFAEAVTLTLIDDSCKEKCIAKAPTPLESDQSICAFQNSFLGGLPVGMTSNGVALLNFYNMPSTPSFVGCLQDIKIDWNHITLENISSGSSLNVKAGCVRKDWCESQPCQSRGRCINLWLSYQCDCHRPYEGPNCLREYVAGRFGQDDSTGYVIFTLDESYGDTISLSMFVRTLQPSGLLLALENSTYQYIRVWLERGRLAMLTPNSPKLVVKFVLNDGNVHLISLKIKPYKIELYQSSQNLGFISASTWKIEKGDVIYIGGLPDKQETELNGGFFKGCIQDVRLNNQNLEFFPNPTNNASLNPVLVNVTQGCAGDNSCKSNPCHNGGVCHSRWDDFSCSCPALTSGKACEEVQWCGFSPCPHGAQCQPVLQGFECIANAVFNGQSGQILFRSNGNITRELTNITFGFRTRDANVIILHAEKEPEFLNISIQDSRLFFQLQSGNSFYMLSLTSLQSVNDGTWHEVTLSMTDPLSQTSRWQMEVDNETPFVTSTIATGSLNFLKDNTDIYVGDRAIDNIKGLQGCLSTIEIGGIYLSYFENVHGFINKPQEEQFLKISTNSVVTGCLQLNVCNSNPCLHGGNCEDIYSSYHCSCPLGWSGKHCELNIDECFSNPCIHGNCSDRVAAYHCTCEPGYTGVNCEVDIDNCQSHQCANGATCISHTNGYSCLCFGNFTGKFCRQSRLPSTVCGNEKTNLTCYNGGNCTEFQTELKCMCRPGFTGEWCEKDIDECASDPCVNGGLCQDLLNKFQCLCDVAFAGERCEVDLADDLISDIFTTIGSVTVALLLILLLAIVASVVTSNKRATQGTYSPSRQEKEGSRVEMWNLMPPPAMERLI

The assay covers variants of B1. The settings on record: with crum1_human CRB1, P82279.
Take F318W: the “effect of a mutation on the interaction” value was “decreasing interaction strength”.
